In article PMC10043284:

Molecular target: PANX2EM (residues 1-372 of human pannexin 2 with a C-terminal thermostabilized BRIL) (UniProt Q96RD6)
Experiment: cryo-EM structure; purified PANX2EM (~6 mg/ml) in 20 mM Tris pH 8.0, 150 mM NaCl, 40 uM GDN, with 1 mM Fluorinated Fos-Choline 8; single-particle analysis, C7 symmetry, 3.92 Å; C1 reconstruction aligned with it

stoichiometry N: 7
Substance: PANX2EM (residues 1-372 of human pannexin 2 with a C-terminal thermostabilized BRIL) (from UniProt Q96RD6-3 1-372)
